# Assay: yeast display, Sf9 membrane polyspecificity reagent, FACS + sequencing; frameworks hold sequencing errors
# Method in brief: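 A nanobody's polyreactivity label depends on the gate it was sorted from. Yeast display cells were stained with 10% biotinylated, detergent-solubilized Sf9 membrane reagent for 1 hour at 4 °C, enriched on streptavidin microbeads and sorted by FACS. The low and high (top ~1%) gates were set on anti-HA fluorescence for expression and streptavidin fluorescence for reagent binding.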
row,Sequence,polyreactivity (PSR sort gate)
1,QVQLVESGGGLVQAGGSLRLSCAASGRTFSPYMGWSRQAPGKERELVAAISKSGGRTYYADSVKWSFTISRDNAKNTVYLQMNSLQPEDTAVYYCATSGNNYYYALYGYWVQGTQVTVSS,low polyreactivity
2,QVQLVESGGGLVQAGGSLRLSCAASGNTFVRNAMGWYRQAPGKERELVASISQSGGTTYYADSVKGRFTISRDNAKNTVYLQMNSLKPEDTAVYYCNAARYRRSPGHTKYNYWGQGTQVTVSS,high polyreactivity
3,QVQLVESGGGLVQAGGSLRLRCAASGRTNAYYNMGRYRQAPGKERELVAAISKSGGSTYYADSVKGRFTISRDNAKNTVYLQMNSLKPEDTAVYYCAKRRSGNVRKYDYWGQGTQVTVSS,high polyreactivity
4,QVQLVESGGGLVQAGGSLRLSCAASGSTFYDYAMGWYRQAPGKERELVAAINGNGDSTYYADSVKGRFTISRDNAKNTVYLQMNSLKPEDTAVYYCAASGYRRYYGYDYWGQGTQVTVSS,low polyreactivity
5,QVQLVESGGGLVHAGGSLSLSCAASGPIFGSYGMGWYRQAPGKERELVAAISYSGGRTFYADSVKGRFTISRDNAKNNVYLQMNSLKPEDTAVYYCNKRYIPSYMSHLDYWGQGTQVTVSS,high polyreactivity
6,QVQLVESGGGLVQAGGSLRLSCAASGRIFAVYAMGWYRQAPGKEREFVAAISYSGGITYYADSVKGRFTISRDNAKNTVYLQMNSLIPEDTAVYYCNAYYYFWGQGTQVTVSS,low polyreactivity
7,QVQLVESGGGLVQAGGSLRLSCAASGNTFRYYAMGWYRQAPGKERELLAAINSRGGTTSYADSVKGRFTISRDNAKNTVYLQMNSLKPEDTAVYYCNKYIRYPFKRYGYWGQGTQVTVSS,high polyreactivity
8,QVQLVESGGGLVQAGGSLRLSCAASGRIFWYYAMGWYRQAPGKERELVATISYGGGNTYYADSVKGRFTISRDNAKNTVYLQMNSLKPEDTAVYDCARVPYAYLPYKPFQQYSYDYWGQGTQVTVSS,high polyreactivity
9,QVQLVESGGGLVQAGGSLRLSCAASGLIFIYNTMGWSRQAPGKERELVAAISGRGGSTYYADSVKGRFTISRDNAKNTVYLQMNSLKPEDTAVYYCAAQDTYHSYGLYSWGQGTQVTVSS,low polyreactivity
10,QVQLVESGGGLVQAGGSLRLSCAASGRISYLYTMGWYRQAPGKERELVAAIRWRDGSTYYADSVKGRFTISRDNAKNTVYLQMNSLTPEDTAVYYCAATPVGFYWYDYWGQGTQVTVSS,low polyreactivity
11,QVQLVESGGGLVQAGGSLRLSCAASGRIFTSYTMGWYRQAPGKERELVAAISASGASTYYADSVKGRFTISRDNAKNTVYLQMNSLKPEDSAVYYCATVRPRERRGYWGQGTQVTVSS,high polyreactivity
12,QVQLVESGGGLVQAGGSLRLSCAASGRNLGYNAMGWYRQAPGKERELVAAISWSGGSTYYADSVKGRFTISRDNAKNTVYLQMNSLKPEDTAVYYCAARNNRYPLYNYWGQGTQVTVSS,low polyreactivity
13,QVQLVESGGGLVQAGGSLRLSCAASGFTFYYNAMGWYRQAPGKERELVAAISTRGGNTYYADSVKGRFTISRDNAKNTVYLQMNSLKPEDTAVYYCARKIRREGRYDYWGQGTQVTVSS,high polyreactivity
14,QVQLVESGGGLVQAGGSLRLSCAASGRIFVYYAMGWYRQAPGKERELVAAITYSVDSTYYADSVKGRFTISRDNAKNTVYLQKNSLKPEDTAVYYCATDVDWAYGYQYEDWGQGTQVPVSS,low polyreactivity
15,QDQLVESGGGLVQAGGSLRLSCAASGRTIYQNAMGWYRQAPGKERELVAAISRSGGSTYYADSVKGRFTISRDNAKNTVYLQMNSLKPEDTAVYYCAADPRSYGGGYDYWGQGPQVTVSS,high polyreactivity
16,QVQLVESGGGLVQAGGSLRLSCAASGRTFWYSAMGWYRQAPGKEREFVAAISWSGGSTYYADSVKGRFTISRDNAKNTVYLQMNSLKPEDTAVYYCAADRYDSSQFYYWGQGTQVTVSS,low polyreactivity
17,QVQIVESGGGLVQAGASLRLSCAASGLIFPQKVMGWYIQAPGNERVLVAAISSGTITNYADSVKGRFTISRDNAKNSVYLQMNSLKPEDTADYFCAAEEDKKTFDYWGQGTQVTVSS,low polyreactivity
18,QVQLVESGGGLVQAGGSLRLSCAASGSIFTNYAMGWYRQAPGKERELVATITYYADSVKGRFTISRDNAKNTVYLQMNSLKPVDTAVYYCAAVRSGPGYDYWGQGTQVTVSS,low polyreactivity
19,QVQLVESGGGLVQAGGSLRLSCASSGSTFDYYMGWYRHAPGKERELVAAITYSGGSTYYADSVKGRFTISRDNAKNTVYLQMKSLKPEDTAVYYCAKDRSTFDDFYSNYYWGQGTQVTVSS,low polyreactivity
20,QVQLVESGGGLVQAGGSLRLSCAASGSIFRTYAMGWYRQAPGKERELVAAIRRSGGRTYYADSVKGRFTISRDNAKNTVYLQMNSLKPEDTAVYYCNKRVSKQSKYDYWGQGTQVTVSS,high polyreactivity
21,QVQLVESGGGLVQAGGSLRLSCAASGFIFHTYAMGWYRQAPGKEREFVAAISGGTSSTYYADSVKGRFTISRDNAKNTVYLQMNSLKPEDTAVYYCAARSRRGGYPRYYYWGQGTQVTVSS,high polyreactivity

row,Sequence,polyreactivity (PSR sort gate)
1,QVQLVESGGGLVQAGGSLRLSCAASGRIFRRYAMGWYRQAPAKERELVAAITTSGGSTYYADSVKGRFTISRDNAKNTVYLQMNSQNPADTAVYYCNTVSPYKYDWGLGTQVTVSS,high polyreactivity
2,QVQLVESGGGLVQAGGSLRLSCAASGRTFDVYAMGWYRQAPGKERELVAAITSGGSTYYADSVKGRFTISRDNAKNTVYLQMNSLKPEDTAVYYCAKASSATRYVQLRQDYDYWGQGTQVTVSS,low polyreactivity
3,QVQLVESGGGLVQAGGSLRLSCAASGFIFGGNAMGWYRQAPGKERELVAAISSGGRTYYADSVKGRFTISRDNAKNTVYLQMNSLKPEDTAVYYCNAYSYHRGRDYWGQGTQVTVSS,low polyreactivity
4,QVQLVESGGGLVQAGGSLRLRCAASGRTLWLYTMGWYRQAPGKERELVARIRSGGSTYYADSVKGRFTISRDNAKNTVYLQMNSLKPEDTAVYYCAAYPYWIHYENYYWGQGTQVTVSS,high polyreactivity
5,QVQLVESGGGLVQAGGSLRLSCAASGFTFSYYAMGWYREAPGKERELVAAISQSGGSKYYADSVKGRFIISRDNAKNTVYLQMNSLKPEDTAVYYCNRGLRSHQSDDYWGLGTQVTVSS,high polyreactivity
6,QVQLVESGGGLVHAGGSLRLSSSASGSTFPVYAMGWYRQAPGKQRELVAAITSGVSTNYADSVKWRFTISRENAKNTVYLQMNSLKPEDTAVYYCAKDFGLLPIRDDYWGQGTQVTVSS,low polyreactivity
7,QVQLVESGGGLVQAGGSLRLRCAASGFTYSYYAMGWYRQAPGKERELVAAINSGGSTYYADSVKGRFTISRDNAKNTVFLLMNSLKPEDTAVYYCAAVYSPGRGYGYIYYYWGQGSQVTVSS,high polyreactivity
8,QVQLVESGGGLVQAGGRLRLSCAASGFTFYRYAMGWYRQAPGKERELVAAITDSGDSTYYADSVKGRFTISRDNAKNTVYLQMNSVKPEDTAVYYCNTLVDLDGFEYYYWGQGTQVTVSS,high polyreactivity
9,QVHLEESGGGLVQAGGSLRLSCAASGFTFHNNVMGWYRQAPGKERELVATISKSGGSTYYADSVKGRFTISRDNAKNPVYLQMKSLKPEDTAVYYSARRYRDYRRYAYWGQGTQVTVSS,high polyreactivity
10,QVQLVESGGALLQAGGSLRLSCSASGRIFSANAMGWYRPAPGKERELVAAITYSGATTYYADSVKGRFTISRDNAKNTVYLQMTSLKPEDTAVYDCAADAGYTHYTAEEEYWGQGTQVTVSS,low polyreactivity
11,QVQLVESGGGLVQAGGSLRLSCAASGSTFAYYTMGWYRQAPGKERELVAAITSGGRTSYADSVKGRFTISRDNAKNTVYLQMNSLKPEDTAVYYCAKGRKPGYYYWGQGTQVTVSS,high polyreactivity
12,QVQLVESGGGLVQAGGSLRLSCAASGFTFTYYAMGWYRQAPGKERELVAGISRSGGSTYYADSVKGRFTISRDNAKNTVYLQMNSLKPEDTAVYYCAATAYSPRGKRYDSWGQGTQVTVSS,high polyreactivity
13,QVQLVESGGGLVQAGGSLRLSCAASGSTFTTHVMGWYRQAPGKERELVAAISWSSGSTYYADSVKGRFTISRDNEKNTVYLQMNSLKPEDTAVYYCDARLVIFYPYSRYYFWGQGTQVTVSS,high polyreactivity
14,QVQIVESGGGLVDAGGSLRLSCAASGRTFPPYAMGWYRQAPGKERELVAAISGSGASTYYADSVKGRFTISRDNAKNTVKLQWISQKPEDTAVYSWARYRGYWGRYYGVHYGYWGQGTQVTVSS,high polyreactivity
15,QVQLVESGGGLVQAGGSLRLISAASGITFDPYAMGWYRQAPGKEREFVAAITRRSASTYYADSVKGRFTISRDNAKNTVYLQMNSLKPEDTALYYCAARGKVPYNYWGQGTQVTVSS,high polyreactivity
16,QVQLVESGGGLVQSGGSLRLSCAASGIIFLDYVMVWYRQAPGKERELVAAISLSAGSTNYADSVKGRFTISRDNAKNTVYLQMNSLKPEDTAVYYCAAEVLAVRDDGYRSDEMDYWGQGTQVTVSS,low polyreactivity
17,QVQLVESGGGLVQAGGSLRLSCAASGSTFQWYTMGWYRQAPGKERELVAAISRSGGRTYYADSVKGRFTISRDNAKNTVYLQMNSLKPEDTAVYYCAARWGRLPEQYRYDYWGQGTQVTVSS,high polyreactivity
18,QVQLVESGGGLVQAGGSLRLSCAASGSTFHRNTMGWYRQAPGKERELVAGISLRGVRTYYADSVKGRFTISRDNAKNTVYLQMNSLKPEDTAVYYCAAGGPYTRNFKLGYWGQGTQVTVSS,high polyreactivity
19,QDQLVESGGGLVQSGGSLLLSCAPSGSMFSFYAMGCYRQAPGKEMELVAAITRGGATTNFADSVKGRFTISRDNAKNTVYLQMNSLKPEDTAVYYCAARTPNVNAVWMDYWGQGTQVTVSS,high polyreactivity
20,QVQLVESGGGLVQAGGSLRLSCAASGRTIVLYVMGWYRQAPGKEREFVADINAGGGSTYYADSVKGRFTISRDNAKNTVYLQMNSLKPEDTSVYYCAATRDLGQLFRFGYWGQSTQVTVSS,low polyreactivity

# — the nanobody polyreactivity screen of Harvey et al. (2022)
